Columns and labels:
[1] = biological target: CASV L-Cterm (California Academy of Sciences virus …, UniProt J7HBG8 1721-2046); assay: EMSA; 5 mM MgCl2; 5 pmol protein, 0.4 pmol RNA; details: protein: recombinant; tags: N-terminal His-tag (pOPINF), removed by 3C protease; chain copies: 2; label: 32P in cap (alpha-32P-GTP); single strand
[2] = biological target: CASV L-Cterm domain 2 (California Academy of Sciences virus …, UniProt J7HBG8 1794-1894); assay: EMSA; 5 mM MgCl2; 5 pmol protein, 0.4 pmol RNA; details: protein: recombinant; tags: N-terminal His-tag, removed by 3C protease; chain copies: 2; label: 32P in cap (alpha-32P-GTP); single strand

**Q.** Does AAAAAAAAAAAAAAAAAAAAAAAAAAAAAAAAAAAAAAAA (ssRNA, 5' cap added with capping enzymes (Cellscript)) [capped polyA 40mer RNA] bind [1]?
**A.** Result: no binding

**Q.** Does AAAAAAAAAAAAAAAAAAAAAAAAAAAAAAAAAAAAAAAA (ssRNA, 5' cap added with capping enzymes (Cellscript)) [capped polyA 40mer RNA] bind [2]?
**A.** Result: no binding

— PMC5444859
